Biological target: T1, Podoplanin (PDPN) on PDPN+ B16-F0 murine melanoma cells (mouse (endogenous in B16-F0)) (UniProt Q62011)
T1 sequence: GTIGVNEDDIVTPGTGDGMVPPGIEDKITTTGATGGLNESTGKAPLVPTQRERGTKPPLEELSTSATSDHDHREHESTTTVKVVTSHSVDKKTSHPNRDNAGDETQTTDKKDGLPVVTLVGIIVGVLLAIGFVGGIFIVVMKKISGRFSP

- percent of tumour cells associated with platelets, counted under a fluorescence microscope (WT platelets mixed with PDPN+ B16-F0 cells, 1:200 tumour cells:platelets, 20 min at 37 °C): 65%
B1: C-type lectin-like receptor 2 (CLEC-2) on platelets of WT C57BL/6J mice (receptor)
chain: MQDEDGYITLNIKPRKQALSSAEPASSWWRVMALVLLISSMGLVVGLVALGIMSVTQQKYLLAEKENLSATLQQLAKKFCQELIRQSEIKTKSTFEHKCSPCATKWRYHGDSCYGFFRRNLTWEESKQYCTEQNATLVKTASQSTLDYIAERITSVRWIGLSRQNSKKDWMWEDSSVLRKNGINLSGNTEENMNCAYLHNGKIHPASCKERHYLICERNAGMTRVDQLL

Source: PMC10983743
